In patent US20120251444A1:

Biological target: LRP1 on wild-type CHO-K1 cells
Experiment: cell-based or functional assay

Q: How did the reduction of viable cell number (MTT assay, 100 nM, 48 hours) turn out when “mini-RAPc (Hep1) combined with equimolar streptavidin-saporin conjugate (ZAP) (from UniProt P22629 37-163)” was run?
A: The reduction of viable cell number (MTT assay, 100 nM, 48 hours) was 40%.
